# PMC9482650, “Quantitative fragmentomics allow affinity mapping of interactomes” (Nature Communications, 2022)
# T1: LIN7B, Q9HAP6
# T1 sequence (Q9HAP6 88-185, limits assumed, looked up): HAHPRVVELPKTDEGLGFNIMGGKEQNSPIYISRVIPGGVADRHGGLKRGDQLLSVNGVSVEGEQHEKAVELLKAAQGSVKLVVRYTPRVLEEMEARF
# T2: RHPN1, Q8TCX5
# T2 sequence (Q8TCX5 508-602, limits assumed, looked up): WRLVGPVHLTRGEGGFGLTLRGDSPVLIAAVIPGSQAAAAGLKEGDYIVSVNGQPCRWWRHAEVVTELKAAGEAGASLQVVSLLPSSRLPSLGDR
# T3: NHERF3_3, Q5T2W1
# T3 sequence (Q5T2W1 238-333, limits assumed, looked up): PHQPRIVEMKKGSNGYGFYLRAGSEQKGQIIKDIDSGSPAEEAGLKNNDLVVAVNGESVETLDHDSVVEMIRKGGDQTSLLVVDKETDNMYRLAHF
# T4: DLG3_3, Q92796
# T4 sequence (Q92796 374-475, limits assumed, looked up): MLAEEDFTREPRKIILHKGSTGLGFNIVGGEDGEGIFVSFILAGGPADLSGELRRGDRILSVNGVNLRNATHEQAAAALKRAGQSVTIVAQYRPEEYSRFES
# T5: LIN7C, Q9NUP9
# T5 sequence (Q9NUP9 88-185, limits assumed, looked up): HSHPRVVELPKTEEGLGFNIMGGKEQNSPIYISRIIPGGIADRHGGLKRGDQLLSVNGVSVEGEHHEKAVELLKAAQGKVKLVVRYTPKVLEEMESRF
# T6: SNTA1, Q13424
# T6 sequence (Q13424 82-180, limits assumed, looked up): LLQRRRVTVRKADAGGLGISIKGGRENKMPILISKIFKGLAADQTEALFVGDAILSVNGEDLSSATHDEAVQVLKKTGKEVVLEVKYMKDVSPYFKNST
# T7: APBA1_2, Q02410
# T7 sequence (Q02410 742-832, limits assumed, looked up): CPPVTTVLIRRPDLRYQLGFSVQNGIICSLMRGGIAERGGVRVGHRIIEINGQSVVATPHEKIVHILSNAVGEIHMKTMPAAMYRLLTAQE
# T8: HTRA3, P83110
# T8 sequence (P83110 354-453, limits assumed, looked up): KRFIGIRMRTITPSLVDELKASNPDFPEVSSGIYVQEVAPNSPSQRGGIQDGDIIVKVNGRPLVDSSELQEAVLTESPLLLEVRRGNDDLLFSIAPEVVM
# Assays:
# Test in all cases: holdup assay
# Set-up in all cases: key: below the threshold = too weak to quantify, mostly under pKd 3.1 to 4
# Settings in all cases: plain residues with an end cap or a label only (N-terminal biotin on a linker: ado-ado)
# MAGI2_3, Q86UL8 = target: MAGI2_3, Q86UL8
# Sequence of MAGI2_3, Q86UL8 (Q86UL8 600-682): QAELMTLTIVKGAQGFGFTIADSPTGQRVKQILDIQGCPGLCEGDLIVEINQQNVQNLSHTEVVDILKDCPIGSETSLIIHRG
# FRMPD2_2, Q68DX3 = target: FRMPD2_2, Q68DX3
# Sequence of FRMPD2_2, Q68DX3 (Q68DX3 944-1038): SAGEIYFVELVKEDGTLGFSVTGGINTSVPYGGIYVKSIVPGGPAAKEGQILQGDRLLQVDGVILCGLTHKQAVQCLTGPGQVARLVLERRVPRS
# LIN7B, Q9HAP6 = target: T1, LIN7B, Q9HAP6
# RHPN1, Q8TCX5 = target: T2, RHPN1, Q8TCX5
# FRMPD3, Q5JV73 = target: FRMPD3, Q5JV73
# Sequence of FRMPD3, Q5JV73 (Q5JV73 12-100): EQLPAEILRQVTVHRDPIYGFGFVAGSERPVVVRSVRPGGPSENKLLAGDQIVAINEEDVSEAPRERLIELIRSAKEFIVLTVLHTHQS
# FRMPD2_1, Q68DX3 = target: FRMPD2_1, Q68DX3
# Sequence of FRMPD2_1, Q68DX3 (Q68DX3 770-861): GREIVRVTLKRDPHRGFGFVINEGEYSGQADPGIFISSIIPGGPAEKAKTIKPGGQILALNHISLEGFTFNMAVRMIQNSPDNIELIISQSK
# PARD3_3, Q8TEW0 = target: PARD3_3, Q8TEW0
# Sequence of PARD3_3, Q8TEW0 (Q8TEW0 582-685): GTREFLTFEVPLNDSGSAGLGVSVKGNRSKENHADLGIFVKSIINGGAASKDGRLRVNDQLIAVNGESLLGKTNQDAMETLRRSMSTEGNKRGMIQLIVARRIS
# NHERF3_3, Q5T2W1 = target: T3, NHERF3_3, Q5T2W1
# MAGI3_2, Q5TCQ9 = target: MAGI3_2, Q5TCQ9
# Sequence of MAGI3_2, Q5TCQ9 (Q5TCQ9 398-503): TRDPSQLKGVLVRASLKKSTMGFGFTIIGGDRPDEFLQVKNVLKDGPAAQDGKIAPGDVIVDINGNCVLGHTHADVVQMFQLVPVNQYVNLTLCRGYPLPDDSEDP
# LNX1_3, Q8TBB1 = target: LNX1_3, Q8TBB1
# Sequence of LNX1_3, Q8TBB1 (Q8TBB1 500-596): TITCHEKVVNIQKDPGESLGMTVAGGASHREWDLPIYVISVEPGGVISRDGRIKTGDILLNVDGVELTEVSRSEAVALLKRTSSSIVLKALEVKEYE
# DLG3_3, Q92796 = target: T4, DLG3_3, Q92796
# GRIP2_3, Q9C0E4 = target: GRIP2_3, Q9C0E4
# Sequence of GRIP2_3, Q9C0E4 (Q9C0E4 238-339): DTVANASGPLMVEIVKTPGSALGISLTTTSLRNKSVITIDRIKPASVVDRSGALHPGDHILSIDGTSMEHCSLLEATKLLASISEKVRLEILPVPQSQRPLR
# LNX1_2, Q8TBB1 = target: LNX1_2, Q8TBB1
# Sequence of LNX1_2, Q8TBB1 (Q8TBB1 371-470): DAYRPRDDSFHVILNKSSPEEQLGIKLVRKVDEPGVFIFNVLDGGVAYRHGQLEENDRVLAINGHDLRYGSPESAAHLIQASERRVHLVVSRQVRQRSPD
# LIN7C, Q9NUP9 = target: T5, LIN7C, Q9NUP9
# MAGI1_2, Q96QZ7 = target: MAGI1_2, Q96QZ7
# Sequence of MAGI1_2, Q96QZ7 (Q96QZ7 456-580): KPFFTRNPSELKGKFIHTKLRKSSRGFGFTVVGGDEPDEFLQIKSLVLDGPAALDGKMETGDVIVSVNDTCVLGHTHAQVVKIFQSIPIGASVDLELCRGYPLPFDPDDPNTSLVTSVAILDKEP
# SNTA1, Q13424 = target: T6, SNTA1, Q13424
# ARHGEF12, Q9NZN5-2 = target: ARHGEF12, Q9NZN5-2
# Sequence of ARHGEF12, Q9NZN5-2 (Q9NZN5 other isoform, or with tags, fused parts or gaps): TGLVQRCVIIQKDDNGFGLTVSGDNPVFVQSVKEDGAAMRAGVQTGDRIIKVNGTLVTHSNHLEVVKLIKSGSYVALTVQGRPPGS
# Inadl_10, Q8NI35 = target: Inadl_10, Q8NI35
# Sequence of Inadl_10, Q8NI35 (Q8NI35 1673-1763): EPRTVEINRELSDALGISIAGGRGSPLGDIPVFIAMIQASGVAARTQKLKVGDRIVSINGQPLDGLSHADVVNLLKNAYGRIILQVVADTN
# Inadl_8, Q8NI35 = target: Inadl_8, Q8NI35
# Sequence of Inadl_8, Q8NI35 (Q8NI35 1425-1530): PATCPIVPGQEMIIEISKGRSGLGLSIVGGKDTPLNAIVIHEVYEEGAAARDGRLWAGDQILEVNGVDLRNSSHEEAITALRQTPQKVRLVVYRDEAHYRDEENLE
# Inadl_6, Q8NI35 = target: Inadl_6, Q8NI35
# Sequence of Inadl_6, Q8NI35 (Q8NI35 1058-1167): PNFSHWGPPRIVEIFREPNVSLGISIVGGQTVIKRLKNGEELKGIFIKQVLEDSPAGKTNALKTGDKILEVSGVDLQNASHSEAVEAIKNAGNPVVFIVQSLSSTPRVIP
# GOPC, Q9HD26 = target: GOPC, Q9HD26
# Inadl_4, Q8NI35 = target: Inadl_4, Q8NI35
# Sequence of Inadl_4, Q8NI35 (Q8NI35 547-651): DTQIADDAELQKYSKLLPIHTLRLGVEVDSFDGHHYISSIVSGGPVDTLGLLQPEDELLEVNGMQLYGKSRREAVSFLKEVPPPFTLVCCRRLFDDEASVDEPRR
# GORASP1, Q9BQQ3 = target: GORASP1, Q9BQQ3
# Sequence of GORASP1, Q9BQQ3 (Q9BQQ3 1-208): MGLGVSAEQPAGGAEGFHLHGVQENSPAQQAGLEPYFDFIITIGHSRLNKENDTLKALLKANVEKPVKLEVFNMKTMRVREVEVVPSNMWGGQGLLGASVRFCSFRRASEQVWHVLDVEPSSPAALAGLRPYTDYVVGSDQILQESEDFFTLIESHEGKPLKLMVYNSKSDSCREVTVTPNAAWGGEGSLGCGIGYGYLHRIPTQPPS
# NHERF4_4, Q86UT5 = target: NHERF4_4, Q86UT5
# Sequence of NHERF4_4, Q86UT5 (Q86UT5 464-550): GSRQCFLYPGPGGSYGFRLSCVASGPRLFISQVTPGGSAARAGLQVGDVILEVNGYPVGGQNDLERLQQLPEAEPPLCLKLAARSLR
# APBA1_2, Q02410 = target: T7, APBA1_2, Q02410
# DLG2_2, Q15700 = target: DLG2_2, Q15700
# Sequence of DLG2_2, Q15700 (Q15700 189-283): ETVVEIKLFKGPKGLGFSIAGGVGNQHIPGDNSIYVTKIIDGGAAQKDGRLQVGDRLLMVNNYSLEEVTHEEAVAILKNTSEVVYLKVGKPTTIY
# DLG4_3, P78352 = target: DLG4_3, P78352
# Sequence of DLG4_3, P78352 (P78352 306-403): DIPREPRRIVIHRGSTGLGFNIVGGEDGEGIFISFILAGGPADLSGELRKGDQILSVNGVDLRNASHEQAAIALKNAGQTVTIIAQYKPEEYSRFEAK
# DLG1_1, Q12959 = target: DLG1_1, Q12959
# HTRA3, P83110 = target: T8, HTRA3, P83110
# MAST2, Q6P0Q8 = target: MAST2, Q6P0Q8
# Sequence of MAST2, Q6P0Q8 (Q6P0Q8 1099-1202): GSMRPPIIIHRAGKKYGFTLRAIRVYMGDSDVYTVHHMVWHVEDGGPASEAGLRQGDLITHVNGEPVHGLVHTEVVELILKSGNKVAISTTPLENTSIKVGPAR
# Inadl_1, Q8NI35 = target: Inadl_1, Q8NI35
# Sequence of Inadl_1, Q8NI35 (Q8NI35 113-229): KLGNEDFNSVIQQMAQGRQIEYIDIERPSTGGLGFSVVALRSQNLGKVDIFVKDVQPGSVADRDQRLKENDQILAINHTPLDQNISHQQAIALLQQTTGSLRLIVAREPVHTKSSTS
Binder,"pKd (MAGI2_3, Q86UL8)","pKd (FRMPD2_2, Q68DX3)","pKd (LIN7B, Q9HAP6)","pKd (RHPN1, Q8TCX5)","pKd (FRMPD3, Q5JV73)","pKd (FRMPD2_1, Q68DX3)","pKd (PARD3_3, Q8TEW0)","pKd (NHERF3_3, Q5T2W1)","pKd (MAGI3_2, Q5TCQ9)","pKd (LNX1_3, Q8TBB1)","pKd (DLG3_3, Q92796)","pKd (GRIP2_3, Q9C0E4)","pKd (LNX1_2, Q8TBB1)","pKd (LIN7C, Q9NUP9)","pKd (MAGI1_2, Q96QZ7)","pKd (SNTA1, Q13424)","pKd (ARHGEF12, Q9NZN5-2)","pKd (Inadl_10, Q8NI35)","pKd (Inadl_8, Q8NI35)","pKd (Inadl_6, Q8NI35)",also measured
"LLQEEWETVM [PTH1R, Q03431]",3.59,below the threshold,below the threshold,4.41,below the threshold,below the threshold,4.33,below the threshold,below the threshold,below the threshold,below the threshold,below the threshold,below the threshold,below the threshold,below the threshold,4.09,3.61,below the threshold,below the threshold,4.12,"pKd (GOPC, Q9HD26): 3.85; pKd (Inadl_4, Q8NI35): below the threshold; pKd (GORASP1, Q9BQQ3): 4.31; pKd (NHERF4_4, Q86UT5): below the threshold; pKd (APBA1_2, Q02410): below the threshold; pKd (DLG2_2, Q15700): below the threshold; pKd (DLG4_3, P78352): below the threshold; pKd (DLG1_1, Q12959): below the threshold; pKd (HTRA3, P83110): below the threshold; pKd (MAST2, Q6P0Q8): 5.68; pKd (Inadl_1, Q8NI35): below the threshold"
"HLSTRQGTCV [ATRNL1, Q5VV63]",below the threshold,below the threshold,below the threshold,3.65,below the threshold,4.1,below the threshold,below the threshold,5.16,below the threshold,3.85,below the threshold,3.71,below the threshold,4.65,3.67,3.51,below the threshold,4.25,below the threshold,"pKd (GOPC, Q9HD26): 3.76; pKd (Inadl_4, Q8NI35): below the threshold; pKd (GORASP1, Q9BQQ3): 3.47; pKd (NHERF4_4, Q86UT5): 3.94; pKd (APBA1_2, Q02410): 4.62; pKd (DLG2_2, Q15700): 4.21; pKd (DLG4_3, P78352): 3.87; pKd (DLG1_1, Q12959): 4.18; pKd (HTRA3, P83110): 4.45; pKd (MAST2, Q6P0Q8): 4.94; pKd (Inadl_1, Q8NI35): below the threshold"
"HYPASPDSWV [CTNND2, Q9UQB3]",3.58,4.54,below the threshold,4.42,3.71,below the threshold,3.92,below the threshold,3.86,below the threshold,below the threshold,below the threshold,3.8,below the threshold,below the threshold,4.17,below the threshold,3.53,4.12,4.37,"pKd (GOPC, Q9HD26): below the threshold; pKd (Inadl_4, Q8NI35): below the threshold; pKd (GORASP1, Q9BQQ3): 3.93; pKd (NHERF4_4, Q86UT5): below the threshold; pKd (APBA1_2, Q02410): 4.5; pKd (DLG2_2, Q15700): 4.09; pKd (DLG4_3, P78352): below the threshold; pKd (DLG1_1, Q12959): 4.07; pKd (HTRA3, P83110): 5.66; pKd (MAST2, Q6P0Q8): 4.17; pKd (Inadl_1, Q8NI35): below the threshold"
"VCMGDHWFDV [PRKN, O60260]",below the threshold,below the threshold,below the threshold,below the threshold,4.15,below the threshold,4.25,below the threshold,below the threshold,4.07,below the threshold,below the threshold,4.07,below the threshold,below the threshold,below the threshold,below the threshold,below the threshold,3.66,3.7,"pKd (GOPC, Q9HD26): below the threshold; pKd (Inadl_4, Q8NI35): below the threshold; pKd (GORASP1, Q9BQQ3): 4.06; pKd (NHERF4_4, Q86UT5): 4.3; pKd (APBA1_2, Q02410): 3.92; pKd (DLG2_2, Q15700): below the threshold; pKd (DLG4_3, P78352): below the threshold; pKd (DLG1_1, Q12959): below the threshold; pKd (HTRA3, P83110): 4.49; pKd (MAST2, Q6P0Q8): 4.85; pKd (Inadl_1, Q8NI35): below the threshold"
